IntAct's records for PubMed 25678664

B1: Claudin-19 (Mus musculus), Q9ET38 (parent)
chain: MANSGLQLLGYFLALGGWVGIIASTALPQWKQSSYAGDAIITAVGLYEGLWMSCASQSTGQVQCKLYDSLLALDGHIQSARALMVVAVLLGFVAMVLSVVGMKCTRVGDSNPTAKSRVAISGGALFLLAGLCTLTAVSWYATLVTQEFFNPSTPVNARYEFGPALFVGWASAGLAMLGGSFLCCTCPEPERANSIPQPYRSGPSTAAREPVVKLPASVKGPLGV

Variants of: B1
Details: with eltb_clopf cpe
In the case of MANSGLQLLGYFLALGGWVGIIASTALPQWKQSSYAGDALITAVGLYEGLWMSCASQSTGQVQCKLYDSLLALDGHIQSARALMVVAVLLGFVAMVLSVVGMKCTRVGDSNPTAKSRVAISGGALFLLAGLCTLTAVSWYATLVTQEFFNPSTPVNARYEFGPALFVGWASAGLAMLGGSFLCCTCPEPERANSIPQPYRSGPSTAAREPVVKLPASVKGPLGV [I40L], the “effect of a mutation on the interaction” value is reported as “decreasing interaction strength”.
In the case of MANSGLQLLGYFLALGGWVGIIASTALPQWKQSSYAGDAAITAVGLYEGLWMSCASQSTGQVQCKLYDSLLALDGHIQSARALMVVAVLLGFVAMVLSVVGMKCTRVGDSNPTAKSRVAISGGALFLLAGLCTLTAVSWYATLVTQEFFNPSTPVNARYEFGPALFVGWASAGLAMLGGSFLCCTCPEPERANSIPQPYRSGPSTAAREPVVKLPASVKGPLGV [I40A], the “effect of a mutation on the interaction” value is reported as “decreasing interaction strength”.
In the case of MANSGLQLLGYFLALGGWVGIIASTALPQWKQSSYAGDAVITAVGLYEGLWMSCASQSTGQVQCKLYDSLLALDGHIQSARALMVVAVLLGFVAMVLSVVGMKCTRVGDSNPTAKSRVAISGGALFLLAGLCTLTAVSWYATLVTQEFFNPSTPVNARYEFGPALFVGWASAGLAMLGGSFLCCTCPEPERANSIPQPYRSGPSTAAREPVVKLPASVKGPLGV [I40V], the “effect of a mutation on the interaction” value is reported as “decreasing interaction strength”.
With MANSGLQLLGYFLALGGWVGIIASTALPQWKQSSYAGDASITAVGLYEGLWMSCASQSTGQVQCKLYDSLLALDGHIQSARALMVVAVLLGFVAMVLSVVGMKCTRVGDSNPTAKSRVAISGGALFLLAGLCTLTAVSWYATLVTQEFFNPSTPVNARYEFGPALFVGWASAGLAMLGGSFLCCTCPEPERANSIPQPYRSGPSTAAREPVVKLPASVKGPLGV [I40S] the “effect of a mutation on the interaction” value was “decreasing interaction strength”.
MANSGLQLLGYFLALGGWVGIIASTALPQWKQSSYAGDAISTAVGLYEGLWMSCASQSTGQVQCKLYDSLLALDGHIQSARALMVVAVLLGFVAMVLSVVGMKCTRVGDSNPTAKSRVAISGGALFLLAGLCTLTAVSWYATLVTQEFFNPSTPVNARYEFGPALFVGWASAGLAMLGGSFLCCTCPEPERANSIPQPYRSGPSTAAREPVVKLPASVKGPLGV [I41S] was tested, and the “effect of a mutation on the interaction” value was “decreasing interaction strength”.
MANSGLQLLGYFLALGGWVGIIASTALPQWKQSSYAGDAIVTAVGLYEGLWMSCASQSTGQVQCKLYDSLLALDGHIQSARALMVVAVLLGFVAMVLSVVGMKCTRVGDSNPTAKSRVAISGGALFLLAGLCTLTAVSWYATLVTQEFFNPSTPVNARYEFGPALFVGWASAGLAMLGGSFLCCTCPEPERANSIPQPYRSGPSTAAREPVVKLPASVKGPLGV [I41V] was tested, and the “effect of a mutation on the interaction” value was “decreasing interaction strength”.
MANSGLQLLGYFLALGGWVGIIASTALPQWKQSSYAGDAIATAVGLYEGLWMSCASQSTGQVQCKLYDSLLALDGHIQSARALMVVAVLLGFVAMVLSVVGMKCTRVGDSNPTAKSRVAISGGALFLLAGLCTLTAVSWYATLVTQEFFNPSTPVNARYEFGPALFVGWASAGLAMLGGSFLCCTCPEPERANSIPQPYRSGPSTAAREPVVKLPASVKGPLGV [I41A] was tested, and the “effect of a mutation on the interaction” value was “decreasing interaction strength”.
In the case of MANSGLQLLGYFLALGGWVGIIASTALPQWKQSSYAGDAIITAVGLYEGLWMSCASQSTGQVQCKLYDSLLALDGHIQSARALMVVAVLLGFVAMVLSVVGMKCTRVGDSNPTAKSRVAISGGALFLLAGLCTLTAVSWYATLVTQEFFNGSTPVNARYEFGPALFVGWASAGLAMLGGSFLCCTCPEPERANSIPQPYRSGPSTAAREPVVKLPASVKGPLGV [P151G], the “effect of a mutation on the interaction” value is reported as “decreasing interaction strength”.
MANSGLQLLGYFLALGGWVGIIASTALPQWKQSSYAGDAIITAVGLYEGLWMSCASQSTGQVQCKLYDSLLALDGHIQSARALMVVAVLLGFVAMVLSVVGMKCTRVGDSNPTAKSRVAISGGALFLLAGLCTLTAVSWYATLVTQEFFNASTPVNARYEFGPALFVGWASAGLAMLGGSFLCCTCPEPERANSIPQPYRSGPSTAAREPVVKLPASVKGPLGV [P151A] was tested, and the “effect of a mutation on the interaction” value was “decreasing interaction strength”.
MANSGLQLLGYFLALGGWVGIIASTALPQWKQSSYAGDAIITAVGLYEGLWMSCASQSTGQVQCKLYDSLLALDGHIQSARALMVVAVLLGFVAMVLSVVGMKCTRVGDSNPTAKSRVAISGGALFLLAGLCTLTAVSWYATLVTQEFFNPSTAVNARYEFGPALFVGWASAGLAMLGGSFLCCTCPEPERANSIPQPYRSGPSTAAREPVVKLPASVKGPLGV [P154A] was tested, and the “effect of a mutation on the interaction” value was “decreasing interaction strength”.
MANSGLQLLGYFLALGGWVGIIASTALPQWKQSSYAGDAIITAVGLYEGLWMSCASQSTGQVQCKLYDSLLALDGHIQSARALMVVAVLLGFVAMVLSVVGMKCTRVGDSNPTAKSRVAISGGALFLLAGLCTLTAVSWYATLVTQEFFNPSTDVNARYEFGPALFVGWASAGLAMLGGSFLCCTCPEPERANSIPQPYRSGPSTAAREPVVKLPASVKGPLGV [P154D] was tested, and the “effect of a mutation on the interaction” value was “decreasing interaction strength”.
MANSGLQLLGYFLALGGWVGIIASTALPQWKQSSYAGDRIITAVGLYEGLWMSCASQSTGQVQCKLYDSLLALDGHIQSARALMVVAVLLGFVAMVLSVVGMKCTRVGDSNPTAKSRVAISGGALFLLAGLCTLTAVSWYATLVTQEFFNPSTPVNARYEFGPALFVGWASAGLAMLGGSFLCCTCPEPERANSIPQPYRSGPSTAAREPVVKLPASVKGPLGV [A39R] was tested, and the “effect of a mutation on the interaction” value was “decreasing interaction strength”.
MANSGLQLLGYFLALGGWVGIIASTALPQWKQSSYAGDSIITAVGLYEGLWMSCASQSTGQVQCKLYDSLLALDGHIQSARALMVVAVLLGFVAMVLSVVGMKCTRVGDSNPTAKSRVAISGGALFLLAGLCTLTAVSWYATLVTQEFFNPSTPVNARYEFGPALFVGWASAGLAMLGGSFLCCTCPEPERANSIPQPYRSGPSTAAREPVVKLPASVKGPLGV [A39S] was tested, and the “effect of a mutation on the interaction” value was “decreasing interaction strength”.
For MANSGLQLLGYFLALGGWVGIIASTALPQWKQSSYAGDAIITAVGLYEGLWMSCASQSTGQVQCKLYDSLLALDGHIQSARALMVVAVLLGFVAMVLSVVGMKCTRVGDSNPTAKSRVAISGGALFLLAGLCTLTAVSWYATLVTQEFFAPSTPVNARYEFGPALFVGWASAGLAMLGGSFLCCTCPEPERANSIPQPYRSGPSTAAREPVVKLPASVKGPLGV [N150A], the “effect of a mutation on the interaction” value was “decreasing interaction strength”.
In the case of MANSGLQLLGYFLALGGWVGIIASTALPQWKQSSYAGDAIITAVGLYEGLWMSCASQSTGQVQCKLYDSLLALDGHIQSARALMVVAVLLGFVAMVLSVVGMKCTRVGDSNPTAKSRVAISGGALFLLAGLCTLTAVSWYATLVTQEFFKPSTPVNARYEFGPALFVGWASAGLAMLGGSFLCCTCPEPERANSIPQPYRSGPSTAAREPVVKLPASVKGPLGV [N150K], the “effect of a mutation on the interaction” value is reported as “decreasing interaction strength”.
For MANSGLQLLGYFLALGGWVGIIASTALPQWKQSSYAGDAIITAVGLYEGLWMSCASQSTGQVQCKLYDSLLALDGHIQSARALMVVAVLLGFVAMVLSVVGMKCTRVGDSNPTAKSRVAISGGALFLLAGLCTLTAVSWYATLVTQEFFLPSTPVNARYEFGPALFVGWASAGLAMLGGSFLCCTCPEPERANSIPQPYRSGPSTAAREPVVKLPASVKGPLGV [N150L], the “effect of a mutation on the interaction” value was “decreasing interaction strength”.
With MANSGLQLLGYFLALGGWVGIIASTALPQWKQSSYAGDAIITAVGLYEGLWMSCASQSTGQVQCKLYDSLLALDGHIQSARALMVVAVLLGFVAMVLSVVGMKCTRVGDSNPTAKSRVAISGGALFLLAGLCTLTAVSWYATLVTQEFFDPSTPVNARYEFGPALFVGWASAGLAMLGGSFLCCTCPEPERANSIPQPYRSGPSTAAREPVVKLPASVKGPLGV [N150D] the “effect of a mutation on the interaction” value was “decreasing interaction strength”.
With MANSGLQLLGYFLALGGWVGIIASTALPQWKQSSYAGDAIITAVGLYEGLWMSCASQSTGQVQCKLYDSLLALDGHIQSARALMVVAVLLGFVAMVLSVVGMKCTRVGDSNPTAKSRVAISGGALFLLAGLCTLTAVSWYATLVTQEFFQPSTPVNARYEFGPALFVGWASAGLAMLGGSFLCCTCPEPERANSIPQPYRSGPSTAAREPVVKLPASVKGPLGV [N150Q] the “effect of a mutation on the interaction” value was “decreasing interaction strength”.
MANSGLQLLGYFLALGGWVGIIASTALPQWKQSSYAGDAIITAVGLYEGLWMSCASQSTGQVQCKLYDSLLALDGHIQSARALMVVAVLLGFVAMVLSVVGMKCTRVGDSNPTAKSRVAISGGALFLLAGLCTLTAVSWYATLVTQEFFSPSTPVNARYEFGPALFVGWASAGLAMLGGSFLCCTCPEPERANSIPQPYRSGPSTAAREPVVKLPASVKGPLGV [N150S] was tested, and the “effect of a mutation on the interaction” value was “decreasing interaction strength”.
For MANSGLQLLGYFLALGGWVGIIASTALPQWKQSSSAGDAIITAVGLYEGLWMSCASQSTGQVQCKLYDSLLALDGHIQSARALMVVAVLLGFVAMVLSVVGMKCTRVGDSNPTAKSRVAISGGALFLLAGLCTLTAVSWYATLVTQEFFNPSTPVNARYEFGPALFVGWASAGLAMLGGSFLCCTCPEPERANSIPQPYRSGPSTAAREPVVKLPASVKGPLGV [Y35S], the “effect of a mutation on the interaction” value was “decreasing interaction strength”.
MANSGLQLLGYFLALGGWVGIIASTALPQWKQSSYAGDAIITAVGLYEGLWMSCASQSTGQVQCKLYDSLLALDGHIQSARALMVVAVLLGFVAMVLSVVGMKCTRVGDSNPTAKSRVAISGGALFLLAGLCTLTAVSWYATLVTQEFFNPSTPVGARYEFGPALFVGWASAGLAMLGGSFLCCTCPEPERANSIPQPYRSGPSTAAREPVVKLPASVKGPLGV [N156G] was tested, and the “effect of a mutation on the interaction” value was “decreasing interaction strength”.
In the case of MANSGLQLLGYFLALGGWVGIIASTALPQWKQSSYAGDAIITAVGLYEGLWMSCASQSTGQVQCKLYDSLLALDGHIQSARALMVVAVLLGFVAMVLSVVGMKCTRVGDSNPTAKSRVAISGGALFLLAGLCTLTAVSWYATLVTQEFFNPSTPVNARFEFGPALFVGWASAGLAMLGGSFLCCTCPEPERANSIPQPYRSGPSTAAREPVVKLPASVKGPLGV [Y159F], the “effect of a mutation on the interaction” value is reported as “decreasing interaction strength”.
With MANSGLQLLGYFLALGGWVGIIASTALPQWKQSSYAGDAIITAVGLYEGLWMSCASQSTGQVQCKLYDSLLALDGHIQSARALMVVAVLLGFVAMVLSVVGMKCTRVGDSNPTAKSRVAISGGALFLLAGLCTLTAVSWYATLVTQEFFNPSTPVNARSEFGPALFVGWASAGLAMLGGSFLCCTCPEPERANSIPQPYRSGPSTAAREPVVKLPASVKGPLGV [Y159S] the “effect of a mutation on the interaction” value was “decreasing interaction strength”.
For MANSGLQLLGYFLALGGWVGIIASTALPQWKQSSYAGDAIITAVGLYEGLWMSCASQSTGQVQCKLYDSLLALDGHIQSARALMVVAVLLGFVAMVLSVVGMKCTRVGDSNPTAKSRVAISGGALFLLAGLCTLTAVSWYATLVTQEFFNPSYPVNARYEFGPALFVGWASAGLAMLGGSFLCCTCPEPERANSIPQPYRSGPSTAAREPVVKLPASVKGPLGV [T153Y], the “effect of a mutation on the interaction” value was “decreasing interaction strength”.
For MANSGLQLLGYFLALGGWVGIIASTALPQWKQSSYAGDAIITAVGLYEGLWMSCASQSTGQVQCKLYDSLLALDGHIQSARALMVVAVLLGFVAMVLSVVGMKCTRVGDSNPTAKSRVAISGGALFLLAGLCTLTAVSWYATLVTQEFFNPDTPVNARYEFGPALFVGWASAGLAMLGGSFLCCTCPEPERANSIPQPYRSGPSTAAREPVVKLPASVKGPLGV [S152D], the “effect of a mutation on the interaction” value was “decreasing interaction strength”.
